US20150072933A1, “NOVEL SEQUENCES FOR THE CONTROL OF REPRODUCTION IN FISH” (Yissum Research Development Company of the Hebrew …, priority 2011, published 2015)
*1 amine or outer side, *2 acyl side, *3 side chain or, on linkers, in order; H or OH if unused. Where no end group is shown, it is not given here. [ ]: non-standard residue; d: D form. NMeF = CN[C@@H](Cc1ccccc1)C(=O)O; Suc = O=C(CCC(=O)[*:2])[*:1]; NMeV = CN[C@H](C(=O)O)C(C)C

T1: human NK3R (human NKB receptor) (human, UniProt P29371 1-465)
T1 sequence (looked up): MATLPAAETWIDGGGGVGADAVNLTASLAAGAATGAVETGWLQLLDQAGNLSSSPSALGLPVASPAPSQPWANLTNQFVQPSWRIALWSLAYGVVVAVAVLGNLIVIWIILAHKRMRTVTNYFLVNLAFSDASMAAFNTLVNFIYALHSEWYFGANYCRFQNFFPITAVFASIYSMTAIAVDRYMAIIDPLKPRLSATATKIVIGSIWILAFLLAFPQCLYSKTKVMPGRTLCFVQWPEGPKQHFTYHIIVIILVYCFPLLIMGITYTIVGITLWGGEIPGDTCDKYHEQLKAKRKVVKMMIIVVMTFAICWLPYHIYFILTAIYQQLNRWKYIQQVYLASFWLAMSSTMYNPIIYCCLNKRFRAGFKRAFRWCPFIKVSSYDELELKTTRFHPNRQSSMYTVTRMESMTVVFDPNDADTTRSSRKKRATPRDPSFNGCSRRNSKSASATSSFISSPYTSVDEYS

T2: zebrafish Tac3rb (tac3 receptor b, NKB receptor) (zebrafish)
T2 chain: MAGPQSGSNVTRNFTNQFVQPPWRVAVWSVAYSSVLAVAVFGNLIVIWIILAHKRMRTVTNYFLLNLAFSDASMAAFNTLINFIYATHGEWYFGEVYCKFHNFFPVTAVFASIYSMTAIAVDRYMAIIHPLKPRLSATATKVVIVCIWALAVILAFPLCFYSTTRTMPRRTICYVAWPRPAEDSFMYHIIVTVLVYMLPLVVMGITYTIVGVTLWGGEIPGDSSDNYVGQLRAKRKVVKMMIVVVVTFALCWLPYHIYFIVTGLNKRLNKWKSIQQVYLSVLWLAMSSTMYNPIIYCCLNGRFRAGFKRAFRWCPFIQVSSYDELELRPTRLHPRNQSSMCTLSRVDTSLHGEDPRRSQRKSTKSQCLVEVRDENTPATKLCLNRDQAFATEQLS

T3: zebrafish Tac3ra (tac3 receptor a, NKB receptor) (zebrafish)
T3 chain: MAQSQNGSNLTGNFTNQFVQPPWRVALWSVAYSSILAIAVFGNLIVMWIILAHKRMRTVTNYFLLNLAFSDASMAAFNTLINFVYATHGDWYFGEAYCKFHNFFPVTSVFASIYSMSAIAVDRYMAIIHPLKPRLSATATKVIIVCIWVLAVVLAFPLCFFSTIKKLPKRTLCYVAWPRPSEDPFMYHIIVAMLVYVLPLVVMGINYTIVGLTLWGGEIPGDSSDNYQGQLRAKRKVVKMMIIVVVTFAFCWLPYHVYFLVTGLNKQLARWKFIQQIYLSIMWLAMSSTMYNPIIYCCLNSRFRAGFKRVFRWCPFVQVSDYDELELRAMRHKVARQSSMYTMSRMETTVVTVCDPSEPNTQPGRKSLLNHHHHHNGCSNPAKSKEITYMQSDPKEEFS


Key:
[1] = test system: zfTac3rb; assay: Receptor transactivation assay, SRE-Luc reporter (PKC activation), COS-7 cells expressing zfTac3rb; type: cell-based, zebrafish; settings: mean ± SEM
Experimental: (§1) In order to study the signaling pathways of the novel zebrafish NKBs, the entire coding regions of zftac3ra (denoted by SEQ ID NO:6) or zftac3rb (denoted by SEQ ID NO:7), or the cDNA clone for human NK3R (obtained from the Missouri S&T cDNA Resource Center, were inserted into pcDNA3.1 (Invitrogen). The luciferase assay was conducted according to Biran et al., 2008 [4] COS-7 cells were grown in DMEM supplemented with 10% FBS, 1% glutamine, 100 U/ml penicillin, and […] streptomycin (Biological Industries) under 5% CO2 until confluent. Cotransfection of either pc-zftac3ra, pc-zftac3rb or pc-Htac3r (at 3 μg/plate), a reporter plasmid (at 2 μg/plate), and pCMV-β-galactosidase (at 1 μg/plate) was carried out with FuGENE 6.0 reagent (Roche). The cells were serum starved for 36 h, stimulated with vehicle or various concentrations of either human (Sigma) or zebrafish NKBs for 6 h, and then harvested and analyzed. Lysates prepared from the harvested cells were assayed for both luciferase activity and β-galactosidase activity, which was used as an internal standard to normalize the luciferase activity directed by the test plasmid. Transfection experiments were performed in triplicate with three independently isolated sets. Protein structure prediction of zebrafish NKBa, NKBb or NKF were performed on I-Tasser servers.
(§2) The response, binding selectivity and signal transduction pathways of the novel tachykinin receptors to their agonists were evaluated by functional expression analysis, using COS-7 cells.
(§3) The NKB analogues (i.e. the NKBa-analog, NKBb-analog and NKF-analog, as denoted by SEQ ID NO. 44-46) were first analyzed in comparison to their native forms in a transactivation assay, using reporter genes for specific signal transduction pathways. To validate the specificity of the serum-responsive element (SRE)-Luc and cAMP-responsive element (CRE)-Luc reporter systems, specific activators for PLC/PKC and AC/PKA signaling pathways were used in control experiments.
(§4) Thus, the ability of the three novel piscine peptides (namely, NKBa, NKBb and NKF, denoted by SEQ ID NO.40, 41 and 42), as well as the ability of the three analogous agonistic peptides, namely, NKBa-analog, NKBb-analog and NKF-analog, to differentially activate the different tac3 receptors, using SRE as a reporter gene that follows PKC activation and CRE as a reporter gene for the PKA pathway, was tested. Human NK3R (human NKB receptor) and human NKB served as controls.

[2] = test system: zfTac3rb; assay: Receptor transactivation assay, CRE-Luc reporter (PKA activation), COS-7 cells expressing zfTac3rb; type: cell-based, zebrafish; settings: mean ± SEM
Experimental: as §1, §2, §3, §4

[3] = test system: zfTac3ra; assay: Receptor transactivation assay, SRE-Luc reporter (PKC activation), COS-7 cells expressing zfTac3ra; type: cell-based, zebrafish; settings: mean ± SEM
Experimental: as §1, §2, §3, §4

[4] = test system: zfTac3ra; assay: Receptor transactivation assay, CRE-Luc reporter (PKA activation), COS-7 cells expressing zfTac3ra; type: cell-based, zebrafish; settings: mean ± SEM
Experimental: as §1, §2, §3, §4

[5] = molecular target: T1, human NK3R (human NKB receptor); assay: cell-based or functional assay
[6] = molecular target: T2, zebrafish Tac3rb (tac3 receptor b, NKB …); assay: cell-based or functional assay
[7] = molecular target: T3, zebrafish Tac3ra (tac3 receptor a, NKB …); assay: cell-based or functional assay
[8] = molecular target: T1, human NK3R (human NKB receptor); assay: cell-based or functional assay; remark: listed apart in the source
[9] = molecular target: T2, zebrafish Tac3rb (tac3 receptor b, NKB …); assay: cell-based or functional assay
[10] = molecular target: T3, zebrafish Tac3ra (tac3 receptor a, NKB …); assay: cell-based or functional assay
[11] = molecular target: T2, zebrafish Tac3rb (tac3 receptor b, NKB …); assay: cell-based or functional assay
[12] = molecular target: T3, zebrafish Tac3ra (tac3 receptor a, NKB …); assay: cell-based or functional assay
[13] = molecular target: T1, human NK3R (human NKB receptor); assay: cell-based or functional assay; remark: listed apart in the source

Row | EC50 ([1]; Table 5, COS-7 cells, SRE-Luc follows PKC activation, read-out: EC50 SRE-Luc zfTac3rb) [nM] | EC50 ([1]; Table 7 (native peptides and analogues), PKC activation, read-out: EC50 using SRE, zfTac3rb) [nM] | EC50 ([2]; Table 5, COS-7 cells, CRE-Luc follows PKA activation, read-out: EC50 CRE-Luc zfTac3rb) [nM] | EC50 ([2]; Table 6 (native peptides and analogues), PKA activation, read-out: EC50 using CRE-Luc, zfTac3rb) [nM] | EC50 ([3]; Table 5, COS-7 cells, SRE-Luc follows PKC activation, read-out: EC50 SRE-Luc zfTac3ra) [nM] | EC50 ([3]; Table 7 (native peptides and analogues), PKC activation, read-out: EC50 using SRE, zfTac3ra) [nM] | EC50 ([4]; Table 5, COS-7 cells, CRE-Luc follows PKA activation, read-out: EC50 CRE-Luc zfTac3ra) [nM] | EC50 ([4]; Table 6 (native peptides and analogues), PKA activation, read-out: EC50 using CRE-Luc, zfTac3ra) [nM] | EC50, SRE reporter gene that follows PKC activation, transfected COS-7 cells [5] [nM] | EC50, SRE reporter gene that follows PKC activation, transfected COS-7 cells [6] [nM] | EC50, SRE reporter gene that follows PKC activation, transfected COS-7 cells [7] [nM] | EC50, CRE-Luc to follow PKA activation, transfected COS-7 cells [8] [nM] | EC50, CRE-Luc to follow PKA activation, transfected COS-7 cells [9] [nM] | EC50, CRE-Luc to follow PKA activation, transfected COS-7 cells [10] [nM] | EC50, CRE-Luc reporter (PKA activation), transfected COS-7 cells [11] [nM] | EC50, SRE-Luc reporter (PKC activation), transfected COS-7 cells [11] [nM] | EC50, CRE-Luc reporter (PKA activation), transfected COS-7 cells [12] [nM] | EC50, SRE-Luc reporter (PKC activation), transfected COS-7 cells [12] [nM] | EC50, CRE-Luc reporter (PKA activation), transfected COS-7 cells [13] [nM] | EC50, SRE-Luc reporter (PKC activation), transfected COS-7 cells [13] [nM] | Molecule
1 | 0.82 ± 0.16 | 0.82 ± 0.16 | 8.12 ± 1.56 | 8.12 ± 1.56 | 2.2 ± 1.49 | 2.2 ± 1.49 | 12.9 ± 13.3 | 12.9 ± 13.3 | – | – | – | – | – | – | – | – | – | – | – | – | CSCC[C@H](NC(=O)[C@H](CC(C)C)NC(=O)CNC(=O)[C@@H](NC(=O)[C@H](Cc1ccccc1)NC(=O)[C@H](Cc1ccccc1)NC(=O)[C@H](CC(=O)O)NC(=O)[C@H](Cc1c[nH]cn1)NC(=O)[C@H](CCSC)NC(=O)[C@@H](N)CC(=O)O)C(C)C)C(N)=O [huNKB, reference compound]
2 | – | – | – | – | – | – | – | – | 0.94 | 0.23 | 0.06 | 2.19 | 2.18 | 1.68 | – | – | – | – | – | – | Suc-DF[NMeV]GLM-NH2 [NKBb-analog (Succ-Asp-Phe-N(Me)Val-Gly-Leu-Met-NH2)]
3 | – | – | – | – | – | – | – | – | – | 0.82 | 2.2 | – | 8.12 | 12.9 | 8.12 | 0.82 | 12.9 | 2.2 | – | – | DMHDFFVGLM-NH2 [human NKB (neurokinin B)]
4 | – | – | – | – | – | – | – | – | – | 2.72 | 2.68 | – | 20.1 | 49 | 20.1 | 2.72 | 49 | 2.67 | – | – | Suc-DF[NMeF]GLM-NH2 [Senktide (Succ-Asp-Phe-N(Me)Phe-Gly-Leu-Met-NH2)]
5 | – | – | – | – | – | – | – | – | 0.71 | 0.54 | 0.31 | 7.33 | 7.75 | 9.14 | – | – | – | – | – | – | XDSFXGLM (N-terminal succinyl (Succ) on Asp; N(Me)Val; C-terminal amide (-NH2)) [NKF-analog (Succ-Asp-Ser-Phe-N(Me)Val-Gly-Leu-Met-NH2)]
6 | – | – | – | – | – | – | – | – | 0.49 | 26.1 | 0.62 | 6.64 | 16.4 | 4.75 | 4.55 | 1.47 | 5.75 | 0.5 | 3.73 | 0.49 | EMHDIFVGLM-NH2 [Zebrafish Tac3a peptide, neurokinin Ba (EMHDIFVGLM-NH2)]
7 | – | – | – | – | – | – | – | – | 3.44 | 0.29 | 0.15 | 16.8 | 11.9 | 6.94 | – | – | – | – | – | – | Suc-DIF[NMeV]GLM-NH2 (SMILES CC[C@H](C)[C@H](NC(=O)[C@H](CC(=O)O)NC(=O)CCC(=O)O)C(=O)N[C@@H](Cc1ccccc1)C(=O)N(C)[C@H](C(=O)NCC(=O)N[C@@H](CC(C)C)C(=O)N[C@@H](CCSC)C(N)=O)C(C)C) [NKBa-analog (Succ-Asp-Ile-Phe-N(Me)Val-Gly-Leu-Met-NH2)]
